Measured values from IntAct's records for PubMed 20129058.

B1: Replicative helicase loader DnaC (Escherichia coli (strain K12)), P0AEF0 (parent)
chain: MKNVGDLMQRLQKMMPAHIKPAFKTGEELLAWQKEQGAIRSAALERENRAMKMQRTFNRSGIRPLHQNCSFENYRVECEGQMNALSKARQYVEEFDGNIASFIFSGKPGTGKNHLAAAICNELLLRGKSVLIITVADIMSAMKDTFRNSGTSEEQLLNDLSNVDLLVIDEIGVQTESKYEKVIINQIVDRRSSSKRPTGMLTNSNMEEMTKLLGERVMDRMRLGNSLWVIFNWDSYRSRVTGKEY

Variants of: B1
Settings: with dnab_ecoli dnaB

| Variant | effect of a mutation on the interaction |
| --- | --- |
| MKNVGDLMQRQQKMMPAHIKPAFKTGEELLAWQKEQGAIRSAALERENRAMKMQRTFNRSGIRPLHQNCSFENYRVECEGQMNALSKARQYVEEFDGNIASFIFSGKPGTGKNHLAAAICNELLLRGKSVLIITVADIMSAMKDTFRNSGTSEEQLLNDLSNVDLLVIDEIGVQTESKYEKVIINQIVDRRSSSKRPTGMLTNSNMEEMTKLLGERVMDRMRLGNSLWVIFNWDSYRSRVTGKEY [L11Q] | disrupting interaction |
